T1: huCLEC12B (Acro Biosystems) (human, UniProt Q2HXU8 65-276, limits assumed)
T1 construct: Bought protein
T1 sequence (looked up): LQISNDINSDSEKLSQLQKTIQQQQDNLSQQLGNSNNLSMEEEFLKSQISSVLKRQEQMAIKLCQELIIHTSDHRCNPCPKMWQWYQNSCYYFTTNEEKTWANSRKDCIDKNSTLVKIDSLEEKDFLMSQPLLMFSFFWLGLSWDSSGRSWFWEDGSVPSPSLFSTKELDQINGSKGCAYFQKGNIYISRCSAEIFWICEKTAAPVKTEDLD

T2: muIgG2a huCLL1 (human, UniProt Q5QGZ9 65-265, limits assumed)
T2 construct: It may be the same construct as muIgG2a monoFc huCLL1 (+) of the ELISA; also called huCLL1.mIgG2a; not shown: mouse IgG2a part
T2 sequence: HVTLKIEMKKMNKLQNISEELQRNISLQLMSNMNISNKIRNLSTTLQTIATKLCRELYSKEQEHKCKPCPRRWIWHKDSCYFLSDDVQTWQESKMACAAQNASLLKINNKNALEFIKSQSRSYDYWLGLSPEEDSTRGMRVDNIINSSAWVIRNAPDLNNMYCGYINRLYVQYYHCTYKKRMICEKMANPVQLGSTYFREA

T3: huIgG1 huCLL1 (human, UniProt Q5QGZ9 65-265, limits assumed)
T3 construct: not shown: human IgG1 part
T3 sequence: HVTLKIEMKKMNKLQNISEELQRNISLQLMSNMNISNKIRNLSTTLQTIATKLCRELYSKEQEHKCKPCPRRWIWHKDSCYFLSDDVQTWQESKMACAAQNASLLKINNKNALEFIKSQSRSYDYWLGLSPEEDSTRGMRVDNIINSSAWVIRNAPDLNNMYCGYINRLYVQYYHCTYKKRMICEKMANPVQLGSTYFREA

B1: D2AD88607-5141 (antibody, V domains shown)
VH: QVQLVESGGGVVQPGRSLRLSCAASGFTFSSYGMHWVRQAPGKGLEWVAIISYDGSDKYYADSVKGRFTISRDNSKNTLYLQMNSLRAEDTAVYYCARNYNYYMDVWGKGTTVTVSS
VL: EIVMTQSPATLSLSPGERATLSCRASQSVRSSYLSWYQQKPGQAPRLLIYGTSTRATGIPARFSGSGSGTDFTLTISSLQPEDFAVYYCQQDYNLPLTFGGGTKVEIK
notes: also called mAb_038
B2: D2AD89041-10444 (antibody, V domains shown)
VH: EVQLLESGGGLVQPGGSLRLSCAASGFTFNNYVMAWVRQVPGKGLEWVSGISGSGLITSYAASVKDRFTISRDNSNNTVYLQMKSLRAEDTAVYFCAKEPHVLLDDYMDVWGKGTTVTVSS
VL: EIVLTQSPATLSLSPGERATLSCGASQSVTSSYLAWYQQKPGLAPRLLIYDASNRATGIPDRFSGSGSGTDFTLTISRLEPEDFAVYYCQQYGRSLTFGGGTKVEIK
notes: also called mAb_049
B3: D2D88607-14083 (antibody, V domains shown)
VH: EVQLLESGGDLVQPGGSLRLSCAASGFTFSSYAMNWVRQAPGKGLEWVSAISGSGVFTYYADSVKGRFTISRDNSENTLYLQMNSLRAEDTAVYYCAKEMQQLIQGDLFDIWGQGTMVTVSS
VL: EIVLTQSPATLSLSPGERATLSCGASQSVSNNYLAWYQQKPGLAPRLLIYDASSRATGIPDRFSGSGSGTDFTLTISRLEPEDFAVYYCQQYGSSHTFGQGTKLEIK
notes: also called mAb_017
B4: D2D88607-15321 (antibody, V domains shown)
VH: EVQLVESGGGLVQPGGSLRLSCAASGFTFSFNDMNWVRQAPGKGLEWVSTISGSGGSTYYADSVKGRFTISRDNSKNTLYLQMNSLRAEDTAVYYCAVTGLYYYYYMDVWGKGTTVTVSS
VL: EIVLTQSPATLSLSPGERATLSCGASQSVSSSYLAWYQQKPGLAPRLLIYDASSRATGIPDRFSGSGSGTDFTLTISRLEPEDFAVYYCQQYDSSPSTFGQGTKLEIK
notes: also called mAb_018
B5: D2D88607-9226 (antibody, V domains shown)
VH: QVQLQQWGAGLLKPSETLSLTCAVYGGSFSGYYWSWIRQPPGKGLEWIGEFNHSGGPNYNPSLKSRVTISTDTSNNQFSLKLSSVTAADTAVYYCARGTTGNYYYYMDVWGKGTTVTVSS
VL: AIQMTQSPSSLSASVGDRVTITCRASQGIRNDLGWYQQKPGKAPKLLIYAASSLQSGVPSRFSGSGSGTDFTLTISSLQPEDFATYYCLQDYIYPPTFGPGTKLEIK
notes: also called mAb_023
B6: D2AD88607-7048 (antibody, V domains shown)
VH: EVQLVESGGGLVQPGGSLRLSCAASGFTFSSYDMHWVRQATGKGLEWVSAIGTAGDKYYLASVKGRFTISRENAKNSLYLQMNSLRAGDTAVYYCVRDSLTGPTVTPYMDVWGKGTTVTVSS
VL: EIVLTQSPDFQSVTPKEKVTITCRASQSIGSGLHWYQQKPDQSPKLLIIYASQSISGVPSRFSGSGSGTDFTLTINSLEAEDAAAYYCHQSSSLPYTFGQGTKLEIK
notes: also called mAb_042

How the values were obtained:
[1] = molecular target: T1, huCLEC12B (Acro Biosystems); assay: Octet BLI, mAb captured on FAB2G anti-human Fab biosensors
Procedure: (§1) Octet Off-Rate Ranking Assay: Alternate binding assay was conducted with the recombinant antibodies confirming specific binding to CLL1 without binding to CLEC12B. Briefly, purified mAbs were individually captured on FAB2G anti-human Fab biosensors. The mAb-captured biosensors were dipped in wells containing antigen and the binding response was measured. Biosensors were later dipped in buffer wells to observe the dissociation of bound antigen from captured mAb and were regenerated and similar binding kinetic assays were performed for subsequent antigens. The binding kinetics of fifteen mAbs were illustrated in Table 2.

muIgG2a huCLL1 [2] = molecular target: T2, muIgG2a huCLL1; assay: Octet BLI, mAb captured on FAB2G biosensor, antigen in solution
Procedure: as §1

huIgG1 huCLL1 [3] = molecular target: T3, huIgG1 huCLL1; assay: as above
Procedure: as §1

[4] = molecular target: T4, muIgG2a monoFc huCLL1 (+) (human); assay: ELISA, plate coated with antigen 1 ug/mL; antibody 10.00 ug/mL in well
T4 construct: ELISA coating antigen
Procedure: ELISA Validation: Antibodies identified by the Beacon screen were made recombinantly and validated for binding to CLL1. High-binding ELISA plate was coated with muIgG2a monoFc huCLL1 (+) (1 μg/mL) overnight at 4° C. After removal of the antigen, the wells were blocked with 2% BSA in 1×PBS for 1 hour. The BSA was then removed and the primary antibody was added to the wells in 1×PBS solution, incubated at RT for 1 hour. The wells were washed four times with 1×PBS. HRP conjugated secondary antibody was added in blocking solution, and was incubated at RT for 45 minutes. The wells were washed five times with 1×PBS. TMB substrate was added, followed by stop solution. The plates were read at 450 nm.

huIgG1 huCLL1 [5] = molecular target: T3, huIgG1 huCLL1; assay: Octet BLI, mAb captured on FAB2G biosensor, antigen in solution; antigen huCLL1 fused to huIgG1 Fc
Procedure: as §1

muIgG2a huCLL1 [6] = molecular target: T2, muIgG2a huCLL1; assay: Octet BLI, mAb captured on FAB2G biosensor, antigen in solution; antigen huCLL1 fused to muIgG2a Fc
Procedure: as §1

| Binder | binding result [1] | Kd (muIgG2a huCLL1 [2]) | t½ (muIgG2a huCLL1 [2]) | Kd (huIgG1 huCLL1 [3]) | t½ (huIgG1 huCLL1 [3]) | OD 450 nm [4] | Kd (huIgG1 huCLL1 [5]) | Kd (muIgG2a huCLL1 [6]) |
| --- | --- | --- | --- | --- | --- | --- | --- | --- |
| B1 | no binding | 0.766 nM | 54.4 min | 19.9 nM | 2.3 min | 2 OD |  |  |
| B2 | no binding |  | 5.4 min |  | 0 min | 0.205 OD | 1120 nM | 3.46 nM |
| B3 | no binding | 0.374 nM | 116 min | 3.19 nM | 18.6 min |  |  |  |
| B4 | no binding | 4.29 nM | 83.2 min | 29.4 nM | 9.1 min | 1.38 OD |  |  |
| B5 | no binding | 0.347 nM | 64.1 min | 2.28 nM | 16.5 min | 1.75 OD |  |  |
| B6 | no binding | 2.98 nM | 7.7 min | 81.1 nM | 0.3 min | 1.57 OD |  |  |

— patent publication US20250388680A1 (KITE PHARMA, published 2025)
